In patent US7632507B2, “Synovial cell protein” (St. Marianna University School of Medicine, priority 2000, dated 2009):

How the values were obtained:
[35S]HA-Synoviolin-HAHA = molecular target: T1, [35S]HA-Synoviolin-HAHA (Homo sapiens, UniProt Q86TM6); assay: Binding of Synoviolin to SL on nylon membrane with [35S]-labeled probe; settings: protein transferred to nylon membrane, 2 hours at room temperature
T1 construct: Expression of Full-Length Synoviolin Recombinant Protein in E. coli; made in house; host or cells: cell-free in vitro translation (TNT-coupled Translation System, Promega) from pcDNA3-HA-synoviolin-HAHA
T1 sequence (Q86TM6 whole entry E545G): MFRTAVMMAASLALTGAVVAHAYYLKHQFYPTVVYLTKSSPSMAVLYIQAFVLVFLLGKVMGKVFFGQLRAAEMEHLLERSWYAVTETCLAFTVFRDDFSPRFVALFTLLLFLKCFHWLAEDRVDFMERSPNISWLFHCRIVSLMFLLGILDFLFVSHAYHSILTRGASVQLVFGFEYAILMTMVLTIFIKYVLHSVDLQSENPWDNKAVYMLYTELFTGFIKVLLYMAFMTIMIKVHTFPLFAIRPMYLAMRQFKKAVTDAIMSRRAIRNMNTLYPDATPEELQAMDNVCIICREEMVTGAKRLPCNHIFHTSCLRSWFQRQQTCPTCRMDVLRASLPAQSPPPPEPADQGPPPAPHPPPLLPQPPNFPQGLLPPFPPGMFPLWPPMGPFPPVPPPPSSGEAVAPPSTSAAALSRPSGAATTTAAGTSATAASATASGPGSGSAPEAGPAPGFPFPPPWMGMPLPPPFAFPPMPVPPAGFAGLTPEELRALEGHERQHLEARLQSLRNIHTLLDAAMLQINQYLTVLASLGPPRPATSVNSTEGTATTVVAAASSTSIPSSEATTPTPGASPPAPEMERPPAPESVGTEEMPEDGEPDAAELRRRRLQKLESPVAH
Procedure: The SL cDNA was inserted into a pGEX vector in the same manner as in Example 3 to prepare GST-SL fusion protein, and the GST-SL (500 ng) was applied to 10% SDS-PAGE along with GST (1 μg) as a control. After SDS-PAGE, it was transferred to a nylon membrane by electroblotting. This nylon membrane was denatured for 1 hour at room temperature with 50 mM Tris-HCl (pH 8.0) containing 6M guanidine hydrochloride and 5 mM 2-mercaptoethanol, and regenerated overnight at 4° C. in 50 mM Tris-HCl (pH 8.0) containing 5 mM 2-mercaptoethanol and 0.05% Tween 20. The regenerated nylon membrane was treated with blocking buffer [10 mM Tris-HCl (pH 8.0), 5% skim milk, 0.1% Triton X-100, 150 mM NaCl, 1 mM EDTA, 5 mM MgCl2, 1 mM DTT, 5% glycerol, protease inhibitor (complete, Boehringer Mannheim)] and washed in blocking buffer (same as above, except for 0.5% skim milk). […] This nylon membrane was washed in 10 mM Tris-HCl (pH 8.0), 0.5% skim milk, 0.1% Triton X-100, 150 mM NaCl, 1 mM EDTA, 5 mM MgCl2, 1 mM DTT, and protease inhibitor (complete, Boehringer Mannheim), and its radioactivity was detected with an image analyzer (BAS2000, Fujix). […]

[1] = system: anti-synovial cell anti-serum; assay: Antibody absorption test in synovial tissue staining; assay type: binding, rabbit; settings: 2.0 mg/mL added to anti-serum
Procedure: The staining of RA patient-derived synovial tissue was performed by fixing synovial tissue upon glass slides by the ordinary method. A sample subjected to 30-minute blocking with 1% BSA was allowed to undergo immune reaction for 60 minutes at room temperature with anti-synovial cell anti-serum diluted 100 times with 1% BSA. After reaction, the sample was washed with PBS and then allowed to undergo immune reaction using HRP-labeled anti-rabbit IgG antibodies as the secondary antibody. Confirmation of the antigen in the immune reaction with anti-synovial cell anti-serum was performed by the coloring of 3,3′-diaminobenzidine tetrahydrochloride based on HRP activity. In the same manner as in the aforementioned Western blotting, GST-partial Synoviolin fusion protein was used to perform an anti-synovial cell anti-serum absorption test with respect to synovial tissue staining. Tissue staining was performed by adding 2.0 mg/mL of GST-partial Synoviolin fusion protein or GST (2.0 mg/mL) to anti-synovial cell anti-serum.

[2] = system: RA patient-derived synovial cells; assay: MTT assay of synovial cell hyperplasia; assay type: cell-based, human; settings: 1 μM, three days of culture, 10%-FCS/DMEM, 37° C., 5% CO2
Procedure: The RA patient-derived synovial cells prepared in Example 1 were used to prepare 96 well plates so that there were 5×10^3 cells/well, and GST or GST-partial Synoviolin was added to the cell supernatant so that the final concentration became 0.01 to 1 μM. After three days of culture, 3-(4,5-dimethyl-2-thiazolyl)-2,5-diphenyl-2H-tetrazolium bromide (MTT)/PBS was added to the cell supernatant, and it was cultured for 3 hours under conditions of 37° C. and 5% CO2. After culturing, the cell supernatant was removed, crystals of MTT formazan were dissolved with dimethyl sulfoxide, and absorbance measurement was performed (Journal of Immunological Methods, 65, 55, 1983).

[3] = system: anti-synovial cell anti-serum; assay: Antibody absorption in fluorescent immunostaining of synovial cells; assay type: binding, rabbit
Procedure: Immunostaining was performed by fixing synovial cells upon glass slides by the ordinary method, and immunostaining was performed using the anti-synovial cell anti-serum of Example 1. A sample subjected to 30-minute blocking with 1% bovine serum albumin (BSA) was allowed to undergo immune reaction for 60 minutes at room temperature with anti-synovial cell anti-serum diluted 100 times with 1% BSA. In addition, along with observation with anti-serum, experiments were also performed using anti-synovial cell antibodies purified from this anti-serum. Purified anti-synovial cell antibodies were prepared by immunoaffinity purification using GST-partial Synoviolin fusion protein as a ligand. The ligand used was a fusion protein expressed after the GST-fusion protein expression vector pGEX-5X-3 containing the 1799 bp synoviolin gene up to No. 1233-3031 of SEQ ID NO: 1 was transformed into BL21. A Glutathione Sepharose column was produced by the method of the Pharmacia Corp, to prepare a GST-partial syno-GS column. As a control for the case where purified anti-synovial cell antibodies were used, an anti-GST antibody obtained by the immunoaffinity purification of anti-serum in the same manner where GST was used as the ligand was used. […]

[4] = system: anti-synovial cell anti-serum; assay: Antibody absorption experiment in Western blotting of cell lysates; assay type: binding, rabbit; settings: RA patient-derived synovial cells, 2.0 mg/mL
Procedure: First, the various cells used as specimens were solubilized in 1% NP-40 to prepare cell lysates. Each of the cell lysates was treated with 25 mM Tris-HCl (pH 6.8), 0.25% sodium dodecyl sulfate (SDS), 0.05% mercaptoethanol and 0.1% glycerol, and then separated with 8% SDS polyacrylamide electrophoresis (SDS-PAGE). After SDS-PAGE, protein derived from the various cells was transferred to a nitrocellulose (NC) membrane by electroblotting. On this NC membrane, anti-synovial cell anti-serum was diluted 1000 times with Tris buffered saline (TBS) containing 2.0 mg/mL GST-partial Synoviolin fusion protein and 5% skim milk, and subjected to immune reaction for 60 minutes at room temperature. In addition, as negative controls, an experiment wherein the same antibody solution is reacted with the NC membrane, and an experiment wherein the GST-partial Synoviolin fusion protein in the antibody solution is replaced with GST alone were performed at the same time. After the reaction, the NC membrane was washed with 0.1% Tween 20/TBS, subjected to an immune reaction for 60 minutes at room temperature with horseradish peroxidase (HRP) labeled anti-rabbit IgG antibodies as the secondary antibodies, and washed with 0.1% Tween 20/TBS, and the target antigen was detected by detecting HRP activity. […]

binding to [35S]HA-Synoviolin-HAHA ([35S]HA-Synoviolin-HAHA)	Molecule	staining of synovial tissue with anti-synovial cell anti-serum [1]	RA patient-derived synovial cell hyperplasia [2]	immune reaction of anti-synovial cell anti-serum with RA patient-derived synovial cells [3]	immune reaction of anti-synovial cell anti-serum to the 220 kDa protein [4]	immune reaction of anti-synovial cell anti-serum to the approximately 140 kDa and approximately 185 kDa proteins [4]
not observed	glutathione S-transferase [GST, reference compound]					
	GST-partial Synoviolin: GST fusion protein of a portion of Synoviolin (cDNA 1799 bp; SEQ ID NO: 1, No. 1233-3031) expressed in E. coli (protein, left off: a dimerising Fc or GST) PPVPPPPSSGEAVAPPSTSAAALSRPSGAATTTAAGTSATAASATASGPGSGSAPEAGPAPGFPFPPPWMGMPLPPPFAFPPMPVPPAGFAGLTPEELRALEGHERQHLEARLQSLRNIHTLLDAAMLQINQYLTVLASLGPPRPATSVNSTEGTATTVVAAASSTSIPSSEATTPTPGASPPAPEMERPPAPESVGTEEMPEDGEPDAAELRRRRLQKLESPVAH	weakened	significantly suppressed	blocked	blocked	partially blocked
observed	GST-SL: GST fusion protein of Synoviolin ligand (SL), thought to be the same protein as S1-5 (protein, left off: a dimerising Fc or GST) QDTEETITYTQCTDGYEWDPVRQQCKDIDECDIVPDACKGGMKCVNHYGGYLCLPKTAQIIVNNEQPQQETQPAEGTSGATTGVVAASSMATSGVLPGGGFVASAAAVAGPEMQTGRNNFVIRRNPADPQRIPSNPSHRIQCAAGYEQSEHNVCQDIDECTAGTHNCRADQVCINLRGSFACQCPPGYQKRGEQCVDIDECTIPPYCHQRCVNTPGSFYCQCSPGFQLAANNYTCVDINECDASNQCAQQCYNILGSFICQCNQGYELSSDRLNCEDIDECRTSSYLCQYQCVNEPGKFSCMCPQGYQVVRSRTCQDINECETTNECREDEMCWNYHGGFRCYPRNPCQDPYILTPENRCVCPVSNAMCRELPQSIVYKYMSIRSDRSVPSDIFQIQATTIYANTINTFRIKSGNENGEFYLRQTSPVSAMLVLVKSLSGPREHIVDLEMLTVSSIGTFRTSSVLRLTIIVGPFSF					
